Laboratory results published in patent US20140140926A1.
No end group written: not given here.

Key:
[1] = molecular target: soluble hSIRP-alpha (human) (UniProt P78324); experiment: inhibition of soluble hSIRP-alpha binding to polypeptide beads by soluble peptide
[2] = molecular target: soluble hSIRP-alpha (human) (UniProt P78324); experiment: flow cytometry, biotinylated peptide on streptavidin polystyrene beads binding soluble hSIRP-alpha, saturation binding fit

Binder | Ki [1] | Kd [2]
EVTELTREGE (synthesized without attachment of biotin) [FG-hairpin (10-aa, …)] | 100 to 200 nM | 
GNYTCEVTELTREGETIIELK (also: biotin via aminohexanoic acid (C6) or PEG linker, site not given here) [FG-peptide (21-aa, …)] |  | 110 to 160 nM
